Measurements taken from article PMC8464830 (Biomolecules, 2021).

Molecular target: T1, human Calmodulin-1 (human, UniProt P0DP23 1-149)
T1 construct: also called hCaM-1; hCaM
Test: SPR
Details: both partners purified

B1: HIV-1 MA clade C (92BR025.8) construct with residue 1-109, lacking the C-terminal helix α5 (domain or fragment)
chain: MGARASILRGGKLDAWERIKLKPGGKKHYMMKHLVWASRELERFALDPGLLETSEGCKQIMKQLQPALQTGTKELISLHNTVATLYCVHEKIDVRDTKEALDKIKEEQN
Q: Does B1 bind?
A: binds
